Measured values published in article PMC8849337.

Tests used:
Experiment in all cases: pull-down
[1] = biological target: MBP-3C–PPM-1.D–truncated–10×HIS (C. elegans)
[2] = biological target: MBP–PPM-1.D–10×HIS (C. elegans)
[3] = biological target: PPM-1.D(568-766) (C. elegans)

B1: GST–CHK-2–3×FLAG (enzyme)
chain: MVRGTKRRRSSAEKPIVVVPVTRDDTMPVDEDLVVGESQCAASKPFAKLVGVRRGISSIDLADDHFVCGRGSDDAPTNFNFSQVAKDVGLYRFISKIQFSIDRDTETRRIYLHDHSRNGTLVNQEMIGKGLSRELMNGDLISIGIPALIIFVYESADADHHPEELTKKYHVTSHSLGKGGFGKVLLGYKKSDRSVVAIKQLNTQFSTRCSRAIAKTRDIRNEVEVMKKLSHPNIVAIYDWITVAKYSYMVIEYVGGGEFFSKVVDSKYNRMGLGESLGKYFAFQLIDAILYLHSVGICHRDIKPENILCSDKAERCILKLTDFGMAKNSVNRMKTRCGTPSYNAPEIVANEGVEYTPKVDIWSLGCVLFITFSGYPPFSEEYTDMTMDEQVLTGRLIFHAQWRRITVETQNMIKWMLTVEPSNRPSAVELMSTQWMKCADCRTAKQDILKSIKPISAAAPAALQTTQAGPVKKAKM
fold binding relative to the MBP affinity tag (NRDE2∆N control) [1]: 4 times | fold binding relative to PPM-1.D lacking the C terminus [2]: 70 fold | fold less binding than PPM-1.D [3]: 10 times | fold more binding than PPM-1.D^trunc [3]: 7 times
